Source: paper PMC10417383, “DNA-Binding Activity of CAMTA3 Is Essential for Its Function: Identification of Critical Amino Acids for Its Transcriptional Activity”

What was measured:
Assay in all cases: EMSA; 500 ng protein; 1X LightShift EMSA binding buffer, 50 ng/ul poly(dI-dC), 20 fmol probe in 20 ul, +/- 4 pmol unlabeled DNA, room temperature 30 min; 5% native PAGE, 0.5X TBE; pH and salt not given
Conditions in all cases: protein: recombinant; tags: His (pET28a); label: 3'-biotin on strand 1; blunt
[1] = biological target: T1, CAMTA3 CG-1 M2 (Arabidopsis thaliana, UniProt Q8GSA7 1-153, W75A)
T1 sequence: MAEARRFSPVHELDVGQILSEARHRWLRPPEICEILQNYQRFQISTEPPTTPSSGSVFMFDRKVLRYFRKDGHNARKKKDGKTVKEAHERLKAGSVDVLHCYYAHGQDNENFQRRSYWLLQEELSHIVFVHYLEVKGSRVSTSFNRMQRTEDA

[2] = biological target: T2, CAMTA3 CG-1 M6 (Arabidopsis thaliana, UniProt Q8GSA7 1-153, Y132A)
T2 sequence: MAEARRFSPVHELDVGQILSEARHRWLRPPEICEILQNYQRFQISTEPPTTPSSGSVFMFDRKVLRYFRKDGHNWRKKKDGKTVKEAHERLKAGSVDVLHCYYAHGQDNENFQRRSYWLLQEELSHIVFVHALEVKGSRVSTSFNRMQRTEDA

[3] = biological target: T3, CAMTA3 CG-1 M4 (Arabidopsis thaliana, UniProt Q8GSA7 1-153, Y102A;Y103A)
T3 sequence: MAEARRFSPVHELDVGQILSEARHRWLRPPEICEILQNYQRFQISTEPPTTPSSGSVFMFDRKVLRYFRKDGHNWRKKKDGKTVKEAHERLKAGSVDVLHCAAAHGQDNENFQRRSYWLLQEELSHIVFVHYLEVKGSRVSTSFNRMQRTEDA

[4] = biological target: T4, CAMTA3 CG-1 M1 (Arabidopsis thaliana, UniProt Q8GSA7 1-153, W26A)
T4 sequence: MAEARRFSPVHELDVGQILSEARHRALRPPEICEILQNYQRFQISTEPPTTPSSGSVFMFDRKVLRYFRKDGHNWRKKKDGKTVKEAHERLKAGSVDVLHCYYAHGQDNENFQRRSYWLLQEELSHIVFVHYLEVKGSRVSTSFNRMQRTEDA

[5] = biological target: T5, CAMTA3 CG-1 M3 (Arabidopsis thaliana, UniProt Q8GSA7 1-153, H88A)
T5 sequence: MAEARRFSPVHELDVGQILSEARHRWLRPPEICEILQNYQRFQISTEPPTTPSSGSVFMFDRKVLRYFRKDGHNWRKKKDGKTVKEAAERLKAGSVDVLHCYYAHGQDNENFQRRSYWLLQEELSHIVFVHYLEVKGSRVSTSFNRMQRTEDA

Measured: binding result

B1: PDF1.4 promoter probe (dsDNA)
DNA 1: CGTGAAAGTCACGCGCCAAGAACAAA
DNA 2: TTTGTTCTTGGCGCGTGACTTTCACG
no binding: all assays above
